# Laboratory results reported in IntAct's records for PubMed 17928862.
# B1: Charged multivesicular body protein 1b (Homo sapiens), Q7LBR1 (parent)
# chain: MSNMEKHLFNLKFAAKELSRSAKKCDKEEKAEKAKIKKAIQKGNMEVARIHAENAIRQKNQAVNFLRMSARVDAVAARVQTAVTMGKVTKSMAGVVKSMDATLKTMNLEKISALMDKFEHQFETLDVQTQQMEDTMSSTTTLTTPQNQVDMLLQEMADEAGLDLNMELPQGQTGSVGTSVASAEQDELSQRLARLRDQV
# partner: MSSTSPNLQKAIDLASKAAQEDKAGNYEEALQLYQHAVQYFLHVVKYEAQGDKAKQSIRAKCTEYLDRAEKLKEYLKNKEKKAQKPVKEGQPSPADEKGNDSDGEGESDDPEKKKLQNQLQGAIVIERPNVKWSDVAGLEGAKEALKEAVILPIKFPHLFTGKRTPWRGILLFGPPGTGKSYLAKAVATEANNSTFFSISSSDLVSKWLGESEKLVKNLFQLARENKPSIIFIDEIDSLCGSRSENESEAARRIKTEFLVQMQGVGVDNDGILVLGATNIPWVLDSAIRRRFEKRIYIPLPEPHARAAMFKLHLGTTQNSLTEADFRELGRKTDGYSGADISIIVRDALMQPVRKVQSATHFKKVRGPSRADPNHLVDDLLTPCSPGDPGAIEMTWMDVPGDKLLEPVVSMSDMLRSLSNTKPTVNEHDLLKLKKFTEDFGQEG
# B2: Vacuolar protein sorting-associated protein 4A (Homo sapiens), Q9UN37 (parent)
# chain: MTTSTLQKAIDLVTKATEEDKAKNYEEALRLYQHAVEYFLHAIKYEAHSDKAKESIRAKCVQYLDRAEKLKDYLRSKEKHGKKPVKENQSEGKGSDSDSEGDNPEKKKLQEQLMGAVVMEKPNIRWNDVAGLEGAKEALKEAVILPIKFPHLFTGKRTPWRGILLFGPPGTGKSYLAKAVATEANNSTFFSVSSSDLMSKWLGESEKLVKNLFELARQHKPSIIFIDEVDSLCGSRNENESEAARRIKTEFLVQMQGVGNNNDGTLVLGATNIPWVLDSAIRRRFEKRIYIPLPEEAARAQMFRLHLGSTPHNLTDANIHELARKTEGYSGADISIIVRDSLMQPVRKVQSATHFKKVCGPSRTNPSMMIDDLLTPCSPGDPGAMEMTWMDVPGDKLLEPVVCMSDMLRSLATTRPTVNADDLLKVKKFSEDFGQES
# partner: B1 chain
# Variants of: B1
# Conditions: with vps4b_human VPS4B
row,effect of a mutation on the interaction,Variant
1,decreasing interaction strength,L188A
2,decreasing interaction strength,L192A

# Variants of: B2
# Conditions: with chm1b_human CHMP1B
row,effect of a mutation on the interaction,Variant
1,decreasing interaction strength,L64A
2,disrupting interaction strength,L64D
